According to publication PMC10379010, “Short Peptides of Innate Immunity Protein Tag7 (PGLYRP1) Selectively Induce Inhibition or Activation of Tumor Cell Death via TNF Receptor” (International Journal of Molecular Sciences, 2023):
Blank lines part the entries; values can stand above or below the binder they belong to.

Target: Hsp70 (recombinant) (UniProt P0DMV8)
Test: MST; sTNFR1 or Hsp70 labeled with Alexa Fluor 633 or 488 (200 nM), 20 min in the dark at room temperature with 16 concentrations of each compound; Monolith NT 115, IR laser power 10%; apparent Kd; triplicate

Kd: 222 nM
B1: peptide 17.1A (peptide)
peptide: HRDVQRT

Kd: 3.15 nM
B2: peptide 17.1B (peptide)
peptide: RSNYVLKG

Kd: 1.73 nM
B3: Tag7 protein (PGLYRP1) (natural protein)
chain: QETEDPACCSPIVPRNEWKALASECAQHLSLPLRYVVVSHTAGSSCNTPASCQQQARNVQHYHMKTLGWCDVGYNFLIGEDGLVYEGRGWNFTGAHSGHLWNPMSIGISFMGNYMDRVPTPQAIRAAQGLLACGVAQGALRSNYVLKGHRDVQRTLSPGNQLYHLIQNWPHYRSP
